1 substance from patent publication EP4537907A1 can be followed below.

Assay [1] concerns the target ADRB1 on human lung fibroblasts (human) (UniProt P08588). Put plainly: LRC-TriCEPS ligand-receptor capture on living human lung fibroblasts (n=3 donors), LC-MS/MS enrichment; reference ligand BSA.
Assay [2] concerns the target ADT3 in human lung fibroblasts (human) (UniProt P12236). The description is as above.
In assay [3] the target is CAVN1 in human lung fibroblasts (human) (UniProt Q6NZI2). The description is as above.
The target of assay [4] is CD248 on human lung fibroblasts (human) (UniProt Q9HCU0). Described as above.
The target in assay [5] is CD44 on human lung fibroblasts (human) (UniProt P16070). The assay is described as above.
The target of assay [6] is CSPG4 on human lung fibroblasts (human) (UniProt Q6UVK1). Described as above.
Assay [7] addresses GPC1 on human lung fibroblasts (human) (UniProt P35052). The assay is described as above.
The target in assay [8] is NRP1 on human lung fibroblasts (human) (UniProt O14786). Described as above.
The target in assay [9] is RECK on human lung fibroblasts (human) (UniProt O95980). Described as above.
The target in assay [10] is SNX18 in human lung fibroblasts (human) (UniProt Q96RF0). Described as above.
The target in assay [11] is ADRB1 on human lung fibroblasts (human) (UniProt P08588). Nature of the assay: LRC-TriCEPS ligand-receptor capture on living human lung fibroblasts (n=3 donors), LC-MS/MS enrichment; reference ligand transferrin (TRFE).
In assay [12] the target is ADT3 in human lung fibroblasts (human) (UniProt P12236). Described as above.
Assay [13] addresses CAVN1 in human lung fibroblasts (human) (UniProt Q6NZI2). Described as above.
The target in assay [14] is CD248 on human lung fibroblasts (human) (UniProt Q9HCU0). The assay is described as above.
Assay [15] addresses CD44 on human lung fibroblasts (human) (UniProt P16070). The description is as above.
In assay [16] the target is CSPG4 on human lung fibroblasts (human) (UniProt Q6UVK1). The assay is described as above.
Assay [17] concerns the target GPC1 on human lung fibroblasts (human) (UniProt P35052). The assay is described as above.
For assay [18], the target named is NRP1 on human lung fibroblasts (human) (UniProt O14786). Described as above.
Assay [19] addresses RECK on human lung fibroblasts (human) (UniProt O95980). The description is as above.
Assay [20] concerns the target SNX18 in human lung fibroblasts (human) (UniProt Q96RF0). The description is as above.

Sequence of SNX18 in human lung fibroblasts (human) (Q96RF0 whole entry): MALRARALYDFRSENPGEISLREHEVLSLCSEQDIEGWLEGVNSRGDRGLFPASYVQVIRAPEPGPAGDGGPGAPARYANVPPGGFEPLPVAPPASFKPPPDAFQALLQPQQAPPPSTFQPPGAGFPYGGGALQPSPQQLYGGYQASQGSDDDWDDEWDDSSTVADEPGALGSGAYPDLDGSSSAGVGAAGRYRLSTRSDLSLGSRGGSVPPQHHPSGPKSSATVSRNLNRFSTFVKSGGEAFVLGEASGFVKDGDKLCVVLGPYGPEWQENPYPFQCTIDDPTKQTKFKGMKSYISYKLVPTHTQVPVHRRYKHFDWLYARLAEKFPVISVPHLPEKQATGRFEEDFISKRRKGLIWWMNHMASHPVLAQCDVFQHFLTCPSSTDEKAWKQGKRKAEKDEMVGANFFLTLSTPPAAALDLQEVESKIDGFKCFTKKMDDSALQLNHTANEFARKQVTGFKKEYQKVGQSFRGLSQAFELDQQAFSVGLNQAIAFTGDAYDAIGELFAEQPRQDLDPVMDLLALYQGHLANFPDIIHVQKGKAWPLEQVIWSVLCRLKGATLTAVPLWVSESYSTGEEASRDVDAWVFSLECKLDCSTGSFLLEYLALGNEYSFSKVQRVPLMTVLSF
Sequence of GPC1 on human lung fibroblasts (human) (P35052 24-530): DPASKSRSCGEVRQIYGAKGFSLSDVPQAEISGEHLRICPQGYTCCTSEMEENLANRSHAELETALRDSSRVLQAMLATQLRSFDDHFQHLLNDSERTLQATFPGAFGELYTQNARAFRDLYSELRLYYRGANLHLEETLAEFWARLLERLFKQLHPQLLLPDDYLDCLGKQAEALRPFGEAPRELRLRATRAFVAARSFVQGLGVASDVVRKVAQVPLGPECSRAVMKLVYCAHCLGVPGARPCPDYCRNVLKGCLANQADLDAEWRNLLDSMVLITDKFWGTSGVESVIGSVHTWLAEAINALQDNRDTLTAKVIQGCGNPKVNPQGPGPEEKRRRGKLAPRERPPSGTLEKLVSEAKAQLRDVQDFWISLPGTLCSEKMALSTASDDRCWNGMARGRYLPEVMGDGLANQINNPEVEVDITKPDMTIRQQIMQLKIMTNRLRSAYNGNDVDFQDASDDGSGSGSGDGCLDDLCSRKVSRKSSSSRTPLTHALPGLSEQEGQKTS
Sequence of CSPG4 on human lung fibroblasts (human) (Q6UVK1 30-2322): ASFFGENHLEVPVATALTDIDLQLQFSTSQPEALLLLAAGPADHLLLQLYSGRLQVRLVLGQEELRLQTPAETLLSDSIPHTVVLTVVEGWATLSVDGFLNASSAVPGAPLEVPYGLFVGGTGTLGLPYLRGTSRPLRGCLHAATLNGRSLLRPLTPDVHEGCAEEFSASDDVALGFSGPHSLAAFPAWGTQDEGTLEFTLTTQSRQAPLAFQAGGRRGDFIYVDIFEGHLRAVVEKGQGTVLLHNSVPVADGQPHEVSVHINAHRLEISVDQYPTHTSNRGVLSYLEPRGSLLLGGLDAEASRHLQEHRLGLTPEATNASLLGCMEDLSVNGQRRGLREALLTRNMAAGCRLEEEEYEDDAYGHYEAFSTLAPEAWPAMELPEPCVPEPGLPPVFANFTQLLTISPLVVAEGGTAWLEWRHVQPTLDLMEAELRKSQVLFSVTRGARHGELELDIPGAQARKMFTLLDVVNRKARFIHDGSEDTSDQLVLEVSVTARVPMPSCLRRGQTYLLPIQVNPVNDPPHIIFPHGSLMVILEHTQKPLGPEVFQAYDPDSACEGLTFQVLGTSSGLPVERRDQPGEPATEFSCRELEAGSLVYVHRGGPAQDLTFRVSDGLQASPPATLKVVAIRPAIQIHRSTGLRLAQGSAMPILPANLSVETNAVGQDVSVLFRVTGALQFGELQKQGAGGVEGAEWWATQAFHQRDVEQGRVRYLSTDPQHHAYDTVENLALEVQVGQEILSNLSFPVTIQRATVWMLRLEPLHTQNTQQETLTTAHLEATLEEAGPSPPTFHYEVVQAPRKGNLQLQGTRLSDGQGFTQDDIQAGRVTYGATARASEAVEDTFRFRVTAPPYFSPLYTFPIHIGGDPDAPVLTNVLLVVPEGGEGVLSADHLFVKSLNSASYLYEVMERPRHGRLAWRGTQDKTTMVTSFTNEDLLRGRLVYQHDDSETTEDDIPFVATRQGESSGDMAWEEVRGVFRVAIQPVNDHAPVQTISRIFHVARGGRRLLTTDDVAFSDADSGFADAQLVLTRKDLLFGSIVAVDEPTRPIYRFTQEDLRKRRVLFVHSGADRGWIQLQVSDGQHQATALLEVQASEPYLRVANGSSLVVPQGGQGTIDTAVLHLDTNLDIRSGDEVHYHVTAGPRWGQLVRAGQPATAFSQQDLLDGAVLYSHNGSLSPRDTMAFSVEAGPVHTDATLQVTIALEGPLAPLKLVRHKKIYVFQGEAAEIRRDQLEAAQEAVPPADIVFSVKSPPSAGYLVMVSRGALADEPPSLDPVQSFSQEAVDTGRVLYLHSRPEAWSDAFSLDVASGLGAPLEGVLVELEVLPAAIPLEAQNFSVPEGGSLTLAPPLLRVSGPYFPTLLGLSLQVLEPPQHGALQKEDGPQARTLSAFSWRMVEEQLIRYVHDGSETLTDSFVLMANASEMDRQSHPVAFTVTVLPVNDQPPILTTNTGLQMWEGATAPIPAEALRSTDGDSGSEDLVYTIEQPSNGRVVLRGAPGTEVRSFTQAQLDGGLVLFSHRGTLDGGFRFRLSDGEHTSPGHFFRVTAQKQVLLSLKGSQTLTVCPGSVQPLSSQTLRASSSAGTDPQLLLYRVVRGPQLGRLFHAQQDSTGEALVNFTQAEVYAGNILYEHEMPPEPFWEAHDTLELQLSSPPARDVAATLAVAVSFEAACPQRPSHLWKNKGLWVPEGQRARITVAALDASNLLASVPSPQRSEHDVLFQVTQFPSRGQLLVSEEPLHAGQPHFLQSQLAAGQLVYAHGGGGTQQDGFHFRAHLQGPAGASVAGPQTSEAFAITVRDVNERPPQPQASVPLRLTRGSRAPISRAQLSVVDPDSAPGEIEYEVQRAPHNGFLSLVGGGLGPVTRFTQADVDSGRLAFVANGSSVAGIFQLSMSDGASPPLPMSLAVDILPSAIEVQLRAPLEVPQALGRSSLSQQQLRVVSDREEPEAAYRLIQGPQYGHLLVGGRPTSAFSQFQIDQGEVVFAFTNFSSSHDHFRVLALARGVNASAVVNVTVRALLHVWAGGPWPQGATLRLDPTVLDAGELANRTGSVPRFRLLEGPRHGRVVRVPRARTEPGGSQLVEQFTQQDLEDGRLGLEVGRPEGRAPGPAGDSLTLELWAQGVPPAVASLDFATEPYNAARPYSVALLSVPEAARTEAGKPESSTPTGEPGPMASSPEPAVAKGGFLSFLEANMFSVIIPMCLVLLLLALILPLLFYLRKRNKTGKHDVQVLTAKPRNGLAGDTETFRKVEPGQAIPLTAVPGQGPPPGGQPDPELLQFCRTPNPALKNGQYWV
Sequence of CAVN1 in human lung fibroblasts (human) (Q6NZI2 whole entry): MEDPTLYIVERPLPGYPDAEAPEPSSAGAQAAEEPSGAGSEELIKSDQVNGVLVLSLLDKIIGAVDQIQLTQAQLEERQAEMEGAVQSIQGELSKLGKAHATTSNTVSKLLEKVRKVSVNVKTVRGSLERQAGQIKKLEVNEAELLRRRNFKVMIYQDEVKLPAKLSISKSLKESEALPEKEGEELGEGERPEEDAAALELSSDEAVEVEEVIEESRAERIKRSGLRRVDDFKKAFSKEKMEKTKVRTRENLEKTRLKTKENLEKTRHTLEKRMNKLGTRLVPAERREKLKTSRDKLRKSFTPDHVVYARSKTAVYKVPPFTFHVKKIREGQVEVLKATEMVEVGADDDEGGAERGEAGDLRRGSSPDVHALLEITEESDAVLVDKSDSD
Sequence of NRP1 on human lung fibroblasts (human) (O14786 22-923): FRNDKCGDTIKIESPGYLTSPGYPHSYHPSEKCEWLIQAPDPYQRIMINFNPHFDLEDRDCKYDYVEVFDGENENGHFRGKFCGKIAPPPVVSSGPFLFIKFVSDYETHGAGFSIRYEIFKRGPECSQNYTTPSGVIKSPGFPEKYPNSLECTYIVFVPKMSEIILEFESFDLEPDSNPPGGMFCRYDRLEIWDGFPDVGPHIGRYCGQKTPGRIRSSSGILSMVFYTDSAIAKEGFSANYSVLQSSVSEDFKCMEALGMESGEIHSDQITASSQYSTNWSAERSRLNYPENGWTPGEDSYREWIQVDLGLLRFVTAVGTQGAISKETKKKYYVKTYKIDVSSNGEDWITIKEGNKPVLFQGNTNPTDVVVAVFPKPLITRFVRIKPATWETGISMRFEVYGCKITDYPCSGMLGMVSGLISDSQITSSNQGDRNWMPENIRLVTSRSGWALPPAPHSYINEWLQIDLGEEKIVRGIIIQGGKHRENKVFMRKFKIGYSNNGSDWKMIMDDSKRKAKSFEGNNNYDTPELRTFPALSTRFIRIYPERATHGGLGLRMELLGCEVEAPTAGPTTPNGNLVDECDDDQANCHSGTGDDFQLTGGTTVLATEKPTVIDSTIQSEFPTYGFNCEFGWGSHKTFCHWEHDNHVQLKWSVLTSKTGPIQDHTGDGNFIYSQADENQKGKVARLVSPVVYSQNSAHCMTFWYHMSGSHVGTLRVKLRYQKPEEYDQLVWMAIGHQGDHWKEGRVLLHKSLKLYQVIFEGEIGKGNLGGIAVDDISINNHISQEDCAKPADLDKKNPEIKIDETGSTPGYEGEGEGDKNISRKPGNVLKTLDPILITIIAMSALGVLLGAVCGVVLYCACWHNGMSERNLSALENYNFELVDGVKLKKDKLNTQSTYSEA
Sequence of ADT3 in human lung fibroblasts (human) (P12236 whole entry): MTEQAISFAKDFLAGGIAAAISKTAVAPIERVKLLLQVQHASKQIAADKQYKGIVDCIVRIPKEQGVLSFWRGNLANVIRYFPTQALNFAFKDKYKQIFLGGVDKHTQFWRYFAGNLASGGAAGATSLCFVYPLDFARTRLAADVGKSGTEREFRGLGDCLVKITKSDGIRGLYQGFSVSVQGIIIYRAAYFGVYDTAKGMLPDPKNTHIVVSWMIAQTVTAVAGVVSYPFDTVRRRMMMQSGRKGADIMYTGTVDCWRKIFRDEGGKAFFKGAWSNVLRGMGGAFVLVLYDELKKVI

In the case of “recombinant human IGFBP5 (from UniProt P24593 21-272) (ligand)”, the log2(FC) IGFBP5 vs BSA (log2 fold change) is -4.9 in [1]; -1.6 in [2]; -1.5 in [3]; -2.2 in [4]; -0.8 in [5]; -2.2 in assay [6]. Besides, the log2(FC) IGFBP5 vs BSA (log2 fold change) is -5.9 in assay [7], -3.8 in [8], -4.3 in [9] and -2.5 in assay [10]. Moreover, the log2(FC) IGFBP5 vs TRFE (log2 fold change) was -4.1 in assay [11]; -1 in assay [12]; -1 in [13]; -1.8 in [14]; -0.6 in assay [15]; -2.3 in [16]. Also, the log2(FC) IGFBP5 vs TRFE (log2 fold change) was -5.5 in assay [17], -3.7 in assay [18], -2.3 in assay [19] and -1.7 in [20].
